# Experimental data taken from the DeepSol protein solubility set.
# Test: soluble on expression in E. coli; label from the status in PepcDB or PDB records
row,Sequence,soluble on expression in E. coli
1,MKIQCDVCEKAPATVICCADEAALCPQCDIEIHAANKLASKHQRLHLNSLSTKFPRCDICQEKAAFIFCVEDRALLCRDCDESIHVANSRSANHQRFLATGIKVALTSTICSKEIEKNQPEPSNNQQKANQIPAKSTSQQQQQPSSATPLPWAVDDFFHFSDIESTDKKGQLDLGAGELDWFSDMGFFGDQINDKALPAAEVPELSVSHLGHVHSYKPMKSNVSHKKPRFETRYDDDDEEHFIVPDLG,not soluble
2,MKISTQSEVEGVLIKALSEGKGIQHVELALKDLPAFDRKRARTTAITEVLTAASVAQQEAFEQSPSVEGKKWKHSGGKGIEPRSSHIELSGKVVQINETFTIPGSGELAKYPRDTDLSASERIHCHCALGPAVNEEIL,not soluble
3,MKIVFLECSVELVPRSLWSHPQVLKSARRYGIEPGDLLLDKSLHYNAMAELPAKWKRGRPDILHVALLTTTDSPLYNEGLLRIYFQVYDGRLFEVGTGVRVPKNYERFRGLVAQLLKTERVPPGEGEALIRLHSRSLAEFVEREGRFILMWEKGSPTTTTYVAARALSTGLPIGVGCFPRGEFKRSTLRKASEAYSIMGGAPLKTWGVASRIVYALERLKSPFTLEHHHHHH,soluble
4,MKIVIIGGFLGGGKTTVLNHLLAESLKESLKPAVIMNEFGKMSVDGALVSEDIPLSELTEGCICCAMKADVSEQLHQLYLKEQPDIVFIECSGIAEPVSVLDACLTPILAPFTTITHMIGVIDASMYKHIKSFPKDIQGLFYEQLAYCSVLFVNKIDSADVETTSKLLKDLEVINPEADIQVGMHGSVTLPISVRQMTATSDNKHESLHKTINHQFVQSPVTCTKAEFIKRLACLPSHIYRLKGFMTFEDTTHTYLIQFTQGQYELTPVAFSKKVPEYLVLIGKGISKEDYQCLEQLEHHHHHH,not soluble
5,MKIYYEHDADLGFILGKKVAVLGFGSQGHAHALNLKDSGVDVRVGLRKGSRSWEKAEAAGLRVLPVAEAVREADVVMVLLPDEKQAQVYREEVEPNLKEGGALAFAHGFNVHFGQIKPRKDLDVWMVAPKGPGHLVRSEYQKGSGVPALVAVHQDASGSAFPTALAYAKAIGAARAGVIATTFKDETETDLFGEQAVLCGGLTRLIRAGFETLVEAGYPPEMAYFETVHEVKLIVDLIYEAGLKGMRYSISNTAEYGDYTRGDLAVPLEETKRRMREILRQIQSGEFAREWMLENQVGSPVLEANRKRWAAHPIEEVGSRLRAMMPFLKARVMEEVG,soluble
6,MKKAGKKNSDAGKTFILISSSCSSCQKAIEFFDQNKISYVVENFYKKPISDKRFKDILSLSEDGTESLFSKRADQIKATNSVSVEELSISELIKLVRERPSLLRRPIIIQYNSSGIPKRMRIGYNSSEIKVFERKLIEPKPIIQQ,soluble
7,MKKALQVAMFSLFTVIGFNAQANEHHHETMSEAQPQVISATGVVKGIDLESKKITIHHDPIAAVNWPEMTMRFTITPQTKMSEIKTGDKVAFNFVQQGNLSLLQDIKVSQ,soluble
8,MKKATMLTYLEEQLEKHLGDYEVGLDWDRKNHTIEVIVRLYAENNEQVAIDDVDGTLSEEEFIEFEDGLLFYNPQKSVVDDEEYLVTIPYEGKKGLRKAVLDGFIHYLKVVLDEGQSDLLDFLSDETAEVFELHWEPADFEAMIKKVAETEKEQWIAYPSY,not soluble
9,MKKEQVEKRTYLAVDIGASSGRIMKSQRLANGQITIEEIHRFKNGFHQKDGYQRWDMASLVHELLLGLQKVKQLGIKECFIGIDTWGVDYCLLDQSGQLLDEPIAYRDGRTEAAVTNFSKGYSLEKLYQQTGIQVQPFNTIFQLFVEEKERLAAASQLLLIPDYLGYVFTGKAVIEATNASTTQLLNAGTKQWESELLDFLGIDETLFPTLVEPGTILGDLQTAAFPDYDLPNATLITIASHDTASAILGTPGIGDDWAYISSGTWSLLGIETTVTTISAEAFQENYTNEWGAQNTIRFLKNIMGMWLIQEVARHQNYQYSYAELAALAEKEPAFQQFIDVNDPRFLNPGNMITELQAYCRETQQTVPESPGELARCIYDNLALCYSVELEKLAQLTGIERKITTLHVVGGGSNNRLLNQLTADVANVTVNAGPGEAIALGNLLMQMIATGELKDIPAARTCIQTSFPTEIYQANPIDSTIKNRYQAFMKRSSL,not soluble
10,MKKFKNILFATQGLPGHSDALEQAIQLAYNNRGQLAGLIAFPAFPADLQRYQEPYEQSYLNTLMETVEACRSQHHIHKDEVPFPLMVEHSEQPAVAIIKSALNHHIDLLIKEAEPMTHSQQGFKALDMTLLRKCPCPVWLHRPLAKPKANRRVAVAIDPITTTEQQKALALRLLELSRSIANTCDSRLHIVSCWEYYLENYLHDQVWIQVEQQQIAEEIAQAKIRHEQALRQLIDESGITGELVIHHLHGKPDELIPEWVTQENIDILVMGTLARTGIAGFVIGNTAENIVQSIECSLVALKPEGFVSPIKNE,soluble
11,MKKGINRVVLVGTGAVGCSYAYCMINQAVAEEFVLVDVNEAKAEGEAMDLSHAVPFAPAPTRVWKGSYEDCKDADLVVITAGLPQKPGETRLDLVEKNAKIFKQIVRSIMDSGFDGIFLIATNPVDILTYVTWKESGLPKERVIGSGTTLDSARFRYMLGEYFNIGPHNIHAYIIGEHGDTELPVWSHVSVGIQKLQTLLEKDNTYNQEDLDKIFINVRDAAYHIIERKGATYYGIGMSLLRVTKAILNDENSVLTVSAYLEGQYGQKDVYIGVPAVLNRGGVREILEVELSEDEELKFDHSVQVLKETMAPVL,not soluble
12,MKKIAIFAKVHDPRCQGVASELIAWLEARGLIPLVEAHLARHLGGRQGIVPEDIPVLADMAVVLGGDGTLISAARLIGSRQIPILGVNLGSLGFLTEITLDELYPVLESCLSGDFQVTERMMLTVSVERNGEEICSHRVLNDVVINKGALARIIDMETEVSGIRLTTYKADGLIISTPTGSTGYSLSANGPIVHPSLECITITPICPHTLTNRPIVLESSSGVTVWLRSKDEDVYLTLDGQVGMELKCGDAVHVRRAAHRTRLVMSRSRNYFEVLRTKLKWGERAAALEHHHHHH,soluble
13,MKKILLVLNHSLAGFGSDEQAQLKPSGKKAPLGPGVTLLPFLQKQGAEIVATLYCGDQYYLENEEEVAKKFIGFAKKFHADAVLCGPAMHYPNFGEMAARLACKFNAAGIPAIAAMAEENPAVSHYYQQVPIVKMPKKGGIGLNNSFKQMAQLVVAKANGKETKQLEETSCF,not soluble
14,MKKKADFLELFAVEKPIIGVIHLKGKTDQEIQERAKKEIQIYSEHGVDAILMENYYGDYVQLEKALQYVTSLDLPIPIGVNVLNVDPLGFHLANKYHLQFLQIDSVVGHVKPRDEASLQAFFDLYRAKTTAKLIGGVRFKYQPMLSEKSVEEDLKIAQQRCDAIAVTENATGEETSLEKIKLFRKQLPEFPLIVAAGLNDKSVKEQLAICDAAIVGSNFKDTRKDTGDIYAPYVDSFMKIVKELRGELEHHHHHH,soluble
15,MKKLPNIHPGEVLMEEFLIPMEITSYRLAKEIGIPQTRVSEITKGRRRITADTALRLSKYFGNSPKFWLGLQDDYDIEEESQLIAEELKAIKKVVV,not soluble
16,MKKLQIAVGIIRNENNEIFITRRAADAHMANKLEFPGGKIEMGETPEQAVVRELQEEVGITPQHFSLFEKLEYEFPDRHITLWFWLVERWEGEPWGKEGQPGEWMSLVGLNADDFPPANEPVIAKLKRL,soluble
17,MKKLSFFLIATLSLGACSTATSPTGRHQVFSGVSQQQLNQLGEQAFVEIKAKEKISGNVRQNAYVRCVVDALVTELPLQWRHVKWETVLFLNEEPNAFALPGGKVGVNTGIFRAAKNQEQLAAVLGHEIGHVVSRHHEERITWQLGTQAGLGLLGVLAGTAYGDSAATAVNQIGGLTAQAAFLLPGSRTQEREADIVGQRLMAQAGFDPIQAVYLWKNMLAIAGQRPPQWLSTHPDPTNRIRQLEQQSAVLASVYAQARDAGRVPHCSPAALEHHHHHH,not soluble
18,MKKLTLREQQLVCLNILDYFHALCERYKISYSLGGGTLIGAIRHKGFIPWDDDIDVYMHRDEYQRFVDVWFQETHEHYNMETAEDILAQYTGEMAKIFDCRTQITDAKGRKSPMFMDIFIYDGVPNEPKIIYPLMKKHRRIKLRFSSCKKRWLRAKENTVQKAILNKLSHFLFSKMQKNLAQFQIKYPIKQCDYIGLVLSDYGGWQKSYMPKEYFNHVIYKEFEGRQFQVMNGYHEHLTQYYGDYMKLPPEEDQKPHHIQEAYILLEHHHHHH,not soluble
19,MKKPSKCQSPGDSSISAKENDAQSNRSRDSKVAPKSEGLATGLDETEWKSRLTTPEIVLKEIRTLEGVSYYHGMVARDLVESKLTRCGDYLIRATDNRIMEFEFILSFFNKKRIHSHLTIKCDVEAGKWALGLLSVNQFSSVVDLTNFYKTNPIGAGFFLKRAISKGKYMIAHDRIKYSPKDDLLGTGNFSDVFRGKIELENQMVNVALKTTKLLDDTMDPTKNVKANKIKKEMIQEAEVMSQLRHANVTSFFGIAVDRLPILLIIEFCNGGNLQGHLIKFGDRIGTNERFLYLHDASAGLNYIHAMSITHRDIAARNCLISVNGFVKLSDFGMGLKVRRNESAKKVAEDDDGKENKEPKLPVRWMSPELVDTPDAFSKMSDMWSLGILAYEIFTNATKPFFNLDDTDVMQTVKSGKHPPLPLSMGPDLIRLLKDVLVAAPTQRTTADKFYNELHVLCTQKGALSLNGLTINQIRGISRKRVEHWEGYIPQVVICDKNGNERDWGDAPQEMLANVVWRGKK,not soluble
20,MKKQHDTIIVLDFGSQYNQLIARRIREFGVYSELHPHTITAEEIKAMNPKGIIFSGGPNSVYGEGALHCDEKIFDLGLPIFGICYGMQLMTQQFGGTVERANHREYGKAVLKVENESKLYANLPEEQVVWMSHGDLVTGLPEGFVVDATSESCPIAGMSNEAKNLYGVQFHPEVRHSEHGNDLIKNFVFGVCGCSEGWNMENFIEVELEKIRETVGDKKVLCALSGGVDSSVVAVLIHKAIGDQLTCIFVDHGLLRKGEAEGVMKTFSEGFHMNVIKVDAKERFMNKLKGVEDPEQKRKIIGNEFIYVFDDEASKLEGMDFLAQGTLYTDIVESGTATAQTIKSHHNVGGLPEDMQFKLIEPLNTLFKDEVRVLGSELGIPDEIVWRQPFPGPGLGIRVLGEITEEKLEIVRESDAILREEIIKAGLDREIWQYFTALPGMRSVGVMGDERTYDYTVGIRAVTSIDGMTADWARIPWDVLEKISVRIVNEVKHVNRIVYDVTSKPPATIEWE,not soluble
21,MKKRYRAINDYYRELFGEKIFKLPIDAGFDCPNRDGTVARGGCTFCTVSGSGDAIVAPEAPIREQFYKEIDFMHRKWPEVNKYLVYFQNFTNTHAKLEIIKERYEQAINEPGVIGINIGTRPDCLPDETIYYLAELSERMHVTLELGLQTTYEATSALINRAHSYDLYKKTVKRIRELAPKVEIVSHLINGLPGETHDMMVENVRRCVTDNDIQGIKLHLLHLMTNTRMQRDYHEGRLRLLSQEDYISIICDQLEIIPKHIVIHRITGDAPRHMLIGPMWSLNKW,not soluble
22,MKKSAFIFSDGELKRKDSTVLFESEDSKNYLPIEDISDIYIFGEVTVTKKFLELATQKEILLHFYNYNEYYVGTYYPREHYNSGFMILKQAEHYLDEEKRMAIAKKFIHGSVKNMLAVLKYYNNREKDLDRQITAISDLAEKIDEMDEINKLMAIEGNIREIYYGSFDIIVDDEYFEFGKRTKQPPKNRMNSLISFGNSILYTTVLSEIYKTHLDPRIGYLHSTNHRRFTLNLDVAEIFKPIIVDRVIFTLIGKKMLGEKHFEEKAGGIVLNDKGRKQFVAQMLEKLNATLMYKPLGREVSYRRLIRLELYKLEKHLMGEQEYKPYVASW,soluble
23,MKKSNIYIGEVIKQVIAEKQVTKAELARRLGVKPQSVDYLLTRKSIDTDTLYSLSLALDYDFAVLYSIKKEHALATDEESPFKVGNAKISLEIELRPDEMLKLNLKQKIADLLEGKGK,not soluble
